System: Micrococcus lysodeikticus cells
Experiment: Lysozyme enzyme activity assay of dissolved micropost tips
Assay type: biochemical
Details: micropost tips 80% lysozyme and 20% PEO 200 k, vs uncompressed powder
Experimental: To measure the activity of lysozyme, the assay provided by Sigma Aldrich was used which measures the amount of lysed Micrococcus lysodeikticus cells. Briefly, a 200 unit/mL Lysozyme solution in 50 mM Potassium Phosphate Buffer was added to a 0.015% [w/v]Micrococcus lysodeikticus cell suspension in the same buffer. The decrease was recorded in A450 over 5 minutes. Nine micropost tips were fabricated from 80% lysozyme and 20% PEO 200 k and dissolved sets of three micropost tips together. Triplicate assays were performed on each dissolved solution for a total of nine tests and the results were compared to the results of a solution made with lysozyme that was not compressed into a micropost tip.

Substance: lysozyme
- enzymatic activity after the manufacturing process: maintain their activity
